Experimental data taken from patent publication US9962507B2, “Droplet delivery device for delivery of fluids to the pulmonary system and methods of use” (PNEUMA RESPIRATORY, INC., priority 2016, dated 2018).

Legend:
Format in all cases: physicochemical
[1] = Anderson Cascade Impactor testing of Albuterol sulfate aerosol from the droplet delivery device (Example B); conditions: Albuterol 0.5%, 28.3 lpm
[2] = Gravimetric analysis of delivered dose per actuation; conditions: average of five doses (actuations)
Procedure: Gravimetric analysis was performed by weighing the Enbrel solution filled ampule before and after dosing. The average of five doses (actuations) were analyzed with an average of 4.25 mg+/−0.15 mg. The total delivered dose of Enbrel per actuation is therefore […] per actuation.
Gravimetric analysis was performed by weighing the Insulin solution filled ampule before and after dosing. The average of five doses (actuations) were analyzed with an average of 5.01 mg+/−0.53 mg. The total delivered dose of Insulin per actuation is therefore 34.8 mcg per actuation.

[3] = Size exclusion chromatography (SEC) stability after aerosol generation with test device
Source text: Alternately, to determine the stability of active agent after droplet generation, the generated stream of droplets including the active agent may be collected and […] may be employed to monitor for any changes in large molecule aggregation and protein fragment content. Soluble protein aggregates and protein fragment content may be calculated by comparing respective peak area under the SEC-HPLC curve of dispensed protein solutions with controls (solutions remaining in the device reservoir). Drug solutions for testing include Enbrel, (ENBREL® single-use prefilled syringes in 25 mg (0.51 mL of a 50 mg/mL solution of etanercept), and insulin, (Humalog, 200 units/ml, 3 ml […] is performed with a […] 3 μm SEC-2000 LC column 300×7.8 mm, SecurityGuard cartridge kit and SecurityGuard cartridges GFC-2000, 4×3 mm ID. Fifty microliters of Enbrel from the syringe (ENBREL® single-use prefilled syringes in 25 mg/0.51 mL of a 50 mg/mL solution of etanercept) is diluted (4:1) (4 parts, 200 mcl of the mobile phase buffer solution to 1 part, 50 mcl Enbrel from syringe). Fifty microliter of the diluted Enbrel is injected and separation was performed at a flow rate of 1.0 ml/min. The mobile phase buffer system included a PHOS. BUFF. SALINE. […] UV detection is performed at 280 nm. […] Aerosol collection and SEC is performed in a similar fashion as for the Enbrel analysis and aerosol collection. […] Fifty microliters of the collected aerosol spray is injected onto the SEC column for analysis, while 50 mcl of the […] insulin solution is injected onto the SEC column for control samples.

[4] = Gel electrophoresis of active agent after droplet generation
Source text: To determine the stability of active agent after droplet generation, the generated stream of droplets including the active agent is collected and the molecular weight of the active agent is verified using gel electrophoresis.

[5] = Enbrel control (not aerosolized)

droplets of an average diameter of less than about 4 μm ([1]; 10 actuations)	Fine ([1]; fraction summary table)	Throat ([1]; fraction summary table)	Substance	average solution mass per dose (actuation), ampule weighed before and after dosing [2] [mg]	Peak Area %, Peak 3, Avg. ([3]; Insulin aerosolized, average of S1 and S2) [%]	Peak Area %, Peak 3 ([3]; Insulin control (not aerosolized)) [%]	ejected dose that forms a fragment ([3]; Insulin, fragment elutes at ~25 minutes) [%]	Peak Area %, Peak 4 [3, 5] [%]	Peak Area %, Peak 5 [3, 5] [%]	dose that leads to formation of molecular fragments ([3]; Enbrel, fragments with elution times of 13 and 25 minutes) [%]	change in electrophoretic mobility (molecular weight) of post-aerosol active agent versus control [4]
over 70%	3.5	4.6	Albuterol sulfate								
			Insulin: insulin, Humalog, 200 units/ml, 3 ml kwikpens	5.01	2.4905	0	2.5				
			etanercept [Enbrel]	4.25				0	0	4.6	negligible change
